Data as given in PMC7424725 (ACS Omega, 2020).

What was measured:
trypsin = target: T1, trypsin (Bos taurus, UniProt P00760); test: Trypsin degradation assay; type: in vitro ADME
T1 sequence (P00760 24-246): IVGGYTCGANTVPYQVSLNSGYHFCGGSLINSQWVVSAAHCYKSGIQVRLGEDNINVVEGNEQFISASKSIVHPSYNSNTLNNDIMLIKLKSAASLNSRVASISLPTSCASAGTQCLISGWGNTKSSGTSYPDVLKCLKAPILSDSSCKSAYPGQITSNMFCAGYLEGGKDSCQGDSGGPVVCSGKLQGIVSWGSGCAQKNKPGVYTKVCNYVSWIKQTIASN

[1] = cited from earlier work

Substance	degradation half-life compared to HI + free Prg-SFTI 7 (trypsin; enzyme/substrate ratio 1:2) [times]	degradation half-life compared to HI + free Prg-SFTI 7 (trypsin; enzyme/substrate ratio 1:4)	pKa of the lysine side-chain amine [1]	pKa of the two N-terminal amines (A1 and B1) [1]
SFTI-Triazolyl-(GQAP)49-GQEP-Cys(B29Nε-Acetyl desB30 Human Insulin) (bicyclic or more) [insulin-SFTI 9]	3	twice as long	–	–
insulin	–	–	~10	~7
